Earlier results in article PMC2864607.
Read-outs that look alike come from different tables or passages of the source.

Assays:
His451 = His451 (UniProt position 451, EASGCHYGVLT)
His326 = His326 (UniProt position 328, GHNVKHKSAIV)
His322 = His322 (UniProt position 324, WHWTGHNVKHK)
His318 = His318 (UniProt position 320, VSSTWHWTGHN)
His49 = His49 (UniProt position 49, PGIICHLDDPK)
[1] = tested on: His2 (position 2, ----GHG----); assay: NMR; details: 25 °C; 0.02 M NaCl; Free model peptide
His203 = His203 (UniProt position 203, LTPHRHRVSAI)
[2] = target: His3 (position 3, ---FKHLK---); assay: NMR; details: 25 °C; 0.02 M NaCl; Free model peptide
[3] = target: His3 (position 3, ---KSHPE---); assay: NMR; details: 25 °C, 0.02 M NaCl, Free model peptide
[4] = Protein bound specifically to its cognate DNA recognition sequence

Glucocorticoid receptor (DNA-binding domain) (Rattus norvegicus)
pKa (His451; [4]): 7.9 | pKa (His451; Unbound protein (no DNA)): 5.9

E2 protein C-terminal DNA-binding domain (E2C) (Human papillomavirus type 16)
pKa (His326; [4]): 6.2 | pKa (His326; Unbound protein (no DNA)): 6.2 | pKa (His322; [4]): 6.3 | pKa (His322; Unbound protein (no DNA)): 6.3 | pKa (His318; [4]): 7.8 | pKa (His318; Unbound protein (no DNA)): 6.7

TATA-binding protein (PwTBP) (Pyrococcus woesei)
pKa (His49; [4]): 7.2 | pKa (His49; Unbound protein (no DNA)): 6.2

GHG model tripeptide (Gly-His-Gly) (synthetic)
pKa [1]: 6.68 ± 0.02

Large T antigen origin-binding domain (T-ag-obd) (Simian virus 40)
pKa (His203; [4]): >8 | pKa (His203; Unbound protein (no DNA)): ~5

FKHLK [FKHLK model peptide (myoglobin-derived) (synthetic (sequence from Physeter macrocephalus myoglobin))]
pKa [2]: 6.16 ± 0.02

KSHPE [KSHPE model peptide (myoglobin-derived) (synthetic (sequence from Physeter macrocephalus myoglobin))]
pKa ([3]; cis His-Pro isomer): 6.23 ± 0.02 | pKa ([3]; trans His-Pro isomer): 6.69 ± 0.02
